These results are taken from US20220064326A1.

This experiment addresses recombinant EGFR-Fc (AcroBiosystems) (human) (UniProt P00533). The experiment can be described thus: BLI (Octet QK), biotinylated binder on streptavidin sensor, EGFR-Fc 0-100 nM, 1:1 global fit.

For “AFF.EGFR (Z domain-based EGFR-binding affibody ZEGFR:1907) (designed binder)”, the Kd came out at 3.2 nM.
